Experimental data as given in paper PMC4366279 (PLoS ONE, 2015).

B1: T. brucei RNA Editing Ligase 1 (TbREL1), full length wild type [modified: [35S]-methionine labelled; [35S]-methionine labelled] [Trypanosoma brucei] / KREPA2 [modified: [35S]-methionine labelled; [35S]-methionine labelled] [Trypanosoma … (parent complex)
chain 1: YMPLPNDQSDFSPYIEIDLPSESRIQSLHKSGLAAQEWVACEKVHGTNFGIYLINQGDHEVVRFAKRSGIMDPNENFFGYHILIDEFTAQIRILNDLLKQKYGLSRVGRLVLNGELFGAKYKHPLVPKSEKWCTLPNGKKFPIAGVQIQREPFPQYSPELHFFAFDIKYSVSGAEEDFVLLGYDEFVEFSSKVPNLLYARALVRGTLDECLAFDVENFMTPLPALLGLGNYPLEGNLAEGVVIRHVRRGDPAVEKHNVSTIIKLRCSSFMELKHPGKQKELKETFIDTVRSGALRRVRGNVTVISDSMLPQVEAAANDLLLNNVSDGRLSNVLSKIGREPLLSGEVSQVDVVLMLAKDALKDFLKEVDSLVLNTTLAFRKLLITNVYFESKRLVEQKWKELMQEEAAAQSEAIPPLSPAAPTKGE
chain 2: MYRRFFRSAAVKHLGTTSAQCLMRATKYPCGAMCRNASSCHPQTLGYQQRFQSTTDKKFHCSVCKKPFRLEMAAKLHLQQAHGGDGSVEAGPGPGVEASSVNVVSTPVPSPISPVERTFVDEEERRPRRMRPTPKPLHQPDRDIPAAAMEEMLGVWDKIGLNRLEGNFVHSTMVMKVFAAPPDVSEIPLYEHVAPEGENPFDSLDHMTTGTVDATYVGHDAFAEVDLVDPFVAAPDQTLNPFRAGKVRNPFTRISPTQREVVKPLQPPQPKEEPLKAPVTPFGQLPMFGQTREPSASFAAAAVSVQAAANPNEVSSPFAAAVSSSPFVGQVASPFAPAQDVAGSPFEASPCAASSPFVTAGGQETSPFAAPSTPASFGQGSLFPPMGTGAPGFTAITETEQRQQELEHGCPTCGKKFSTFEGAAMHSKSKHGIVLESKKVKDRLNRKGVPDLPAYVPSPVDLSSTSPFGTRSAIGASWAETELIPHAQCVSNITIVGRVLDVSQASENVSHVTVFVEGERSGEEETLTLCCFGEVSQKIRGTLKRNATIFASGTLRLHPVYEASNNKYYVSPVVHVSMPTGTLAVIT

Variants of: B1
Experiment: co-precipitation (pull-down) with His-tag isolation beads, [35S]-methionine labeled proteins; parent: 100; read off a plot

First: chain 1 H161A
Second: chain 1 S170A
The percent of parent of the first is higher: ~94 % of WT for the first, ~66 % of WT for the second.

Compared with chain 1 E411A, chain 1 K361A is lower in percent of parent: ~94 % of WT for the first, ~67 % of WT for the second.
